What all share (details): remark: other sources report otherwise
For assay [1], the target named is T1, recombinant soluble homotrimeric HA of A/Japan/305/57 (H2N2) (Influenza A virus A/Japan/305/1957(H2N2)). Kind of assay: HA microarray, BCC supernatant.
Assay [2] has as its target T2, recombinant soluble homotrimeric HA of A/Netherlands/219/03 (H7N7) (Influenza A virus A/Netherlands/219/03(H7N7)). Nature of the assay: HA microarray, BCC supernatant.
In assay [3] the target is T3, recombinant soluble homotrimeric HA of A/Solomon Islands/3/06 (H1N1) (Influenza A virus A/Solomon Islands/3/2006(H1N1)). Kind of assay: HA microarray, BCC supernatant.
For assay [4], the target named is T4, recombinant soluble homotrimeric HA of A/Wisconsin/67/05 (H3N2) (Influenza A virus A/Wisconsin/67/2005(H3N2)). Nature of the assay: HA microarray, BCC supernatant.
Assay [5] deals with T5, recombinant soluble homotrimeric HA of A/chicken/Vietnam/NCVD-016/08 (H5N1) (Influenza A virus A/chicken/Vietnam/NCVD-016/2008(H5N1)). Nature of the assay: HA microarray, BCC supernatant.
For assay [6], the target named is T6, recombinant soluble homotrimeric HA of A/duck/Yangzhou/02/05 (H8N4) (Influenza A virus A/duck/Yangzhou/02/2005(H8N4)). Kind of assay: HA microarray, BCC supernatant.
Assay [7] addresses T7, recombinant soluble homotrimeric HA of A/northern shoveler/California/HKWF115/07 (H6) (Influenza A virus A/northern shoveler/California/HKWF115/2007(H6N1)). Kind of assay: HA microarray, BCC supernatant.
Assay [8] has as its target T8, recombinant soluble homotrimeric HA of A/swine/Ontario/01911-2/99 (H4N6) (Influenza A virus A/Swine/Ontario/01911-2/99 (H4N6)). Kind of assay: HA microarray, BCC supernatant.
Assay [9] deals with recombinant homotrimeric HA A/Japan/305/57 H2N2 (Influenza A virus A/Japan/305/1957(H2N2)). Nature of the assay: protein microarray, purified IgG, trimeric HA.
Assay [10] has as its target recombinant homotrimeric HA A/Netherlands/219/03 H7N7 (Influenza A virus A/Netherlands/219/03(H7N7)). Kind of assay: protein microarray, purified IgG, trimeric HA.
For assay [11], the target named is recombinant homotrimeric HA A/Solomon Islands/3/06 H1N1 (Influenza A virus A/Solomon Islands/3/2006(H1N1)). Kind of assay: protein microarray, purified IgG, trimeric HA.
Assay [12] addresses recombinant homotrimeric HA A/South Carolina/1/18 H1N1 (Influenza A virus A/South Carolina/1/18 (H1N1)). Nature of the assay: protein microarray, purified IgG, trimeric HA.
Assay [13] addresses recombinant homotrimeric HA A/Wisconsin/67/05 H3N2 (Influenza A virus A/Wisconsin/67/2005(H3N2)). Nature of the assay: protein microarray, purified IgG, trimeric HA.
For assay [14], the target named is recombinant homotrimeric HA A/chicken/Vietnam/NCVD-016/08 H5N1 (Influenza A virus A/chicken/Vietnam/NCVD-016/2008(H5N1)). Kind of assay: protein microarray, purified IgG, trimeric HA.
Assay [15] deals with recombinant homotrimeric HA A/duck/Yangzhou/02/05 H8N4 (Influenza A virus A/duck/Yangzhou/02/2005(H8N4)). Kind of assay: protein microarray, purified IgG, trimeric HA.
Assay [16] concerns the target recombinant homotrimeric HA A/northern shoveler/California/HKWF115/07 H6N4 (Influenza A virus A/northern shoveler/California/HKWF115/2007(H6N1)). Kind of assay: protein microarray, purified IgG, trimeric HA.
For assay [17], the target named is recombinant homotrimeric HA A/swine/Ontario/01911-2/99 H4N6 (Influenza A virus A/Swine/Ontario/01911-2/99 (H4N6)). Kind of assay: protein microarray, purified IgG, trimeric HA.
The target in assay [18] is T9, recombinant soluble homotrimeric HA of A/California/4/09 (H1N1) (Influenza A virus A/California/04/2009(H1N1)). Nature of the assay: trimeric HA microarray, transfection supernatant set 3.
Assay [19] has as its target recombinant soluble homotrimeric HA of A/Hong Kong/1073/99 (H9N2) (Influenza A virus A/Hong Kong/1073/99 (H9N2)). The description is as above.
In assay [20] the target is T1, recombinant soluble homotrimeric HA of …. The description is as above.
Assay [21] concerns the target T2, recombinant soluble homotrimeric HA of …. The assay is described as above.
Assay [22] deals with T3, recombinant soluble homotrimeric HA of …. Described as above.
In assay [23] the target is recombinant soluble homotrimeric HA of A/South Carolina/1/18 (H1N1) (Influenza A virus A/South Carolina/1/18 (H1N1)). Described as above.
Assay [24] has as its target T4, recombinant soluble homotrimeric HA of …. The description is as above.
In assay [25] the target is T5, recombinant soluble homotrimeric HA of …. The description is as above.
Assay [26] deals with T6, recombinant soluble homotrimeric HA of …. The description is as above.
For assay [27], the target named is T7, recombinant soluble homotrimeric HA of …. Described as above.
Assay [28] has as its target T8, recombinant soluble homotrimeric HA of …. The assay is described as above.
The target of assay [29] is recombinant homotrimeric HA A/California/4/09 H1N1 (Influenza A virus A/California/04/2009(H1N1)). Nature of the assay: protein microarray, purified IgG, trimeric HA.
The target of assay [30] is T9, recombinant soluble homotrimeric HA of …. Kind of assay: trimeric HA microarray, transfection supernatant set 2.
In assay [31] the target is T2, recombinant soluble homotrimeric HA of …. The assay is described as above.
The target in assay [32] is T4, recombinant soluble homotrimeric HA of …. Described as above.
The target of assay [33] is T5, recombinant soluble homotrimeric HA of …. Described as above.
Assay [34] concerns the target T6, recombinant soluble homotrimeric HA of …. The description is as above.

B1: TCN-532 (5262_H18) (antibody, V domains shown)
VH: QVQLQESGPGLVKPSETLSLTCTVSGGSVSSETYYWSWIRQPPGKGLEWIGYIYYIGNTDYRPSLKSRVTISLDTSKNQFSLKLSSVTAADTAVYYCARGAYYDSSGYPAFYIWGQGTMVTVSS
VL: QSVLTQPPSVSGAPGQRVTISCTGSSSNIGSDYDVHWYKQLPGTAPKLLIFGNSNRPSGVPDRFSGSKSGTSASLAITGLQAEDEADYYCQSYDSSLSGFHVFGSGTKVTVL
In the case of B1, the Trimeric HA Binding: RLU is 176 RLU in [1]; 327 RLU in assay [2]; 327 RLU in [3]; 18000 RLU in assay [4]; 46 RLU in assay [5]; 785 RLU in assay [6]. Also, the Trimeric HA Binding: RLU was determined as 511 RLU in [7]; 119 RLU in [8]; 764 RLU in assay [9]; 129 RLU in assay [10]; 571 RLU in assay [11]; 149 RLU in assay [12]. In addition, the Trimeric HA Binding: RLU in assay [13] is 25200 RLU; in assay [14], 487 RLU; in assay [15], 176 RLU; in assay [16] it was 117 RLU; in [17], 122 RLU; in assay [18], 23600 RLU. For the same molecule, the Trimeric HA Binding: RLU in assay [19] was 48 RLU; in assay [20], 441 RLU; in [21] it was 42 RLU; in assay [22] it was 59 RLU; in [23], 311 RLU; in assay [24], 9970 RLU. Further, the Trimeric HA Binding: RLU turned out to be 29 RLU in [25], 57 RLU in assay [26], 78 RLU in assay [27] and 29 RLU in assay [28].

B2: TCN-526 (5084_C17) (antibody, V domains shown)
VH: EVLMVESGGGLVQPGGSVRLSCVASGFSFSSHWMTWVRQAPGKGLEWVANIEDDGGDKYYVDSVKGRFIISRDNAKNSVYLQMNSLRAEDTAVYFCARGSGSSDRSDYDPHYYYYLDVWGKGATVTVSS
VL: DIQLTQSPSSLSASVGDRVTITCRASQSISRYLNWYQQKPGKAPKLLLFAASTLLDGVPSRFSGSGSGTDFTLTISSLQPEDFATYYCQRNHSPSWTFGQGTRVEIK
On to B2, for which the Trimeric HA Binding: RLU in assay [1] amounted to 246 RLU; in assay [2], 1340 RLU; in assay [3], 341 RLU; in assay [4], 49300 RLU; in assay [6] it was 596 RLU; in assay [29] it was 620 RLU. The Trimeric HA Binding: RLU in [9] was 642 RLU; in assay [11], 804 RLU; in assay [12], 87 RLU; in assay [13], 26600 RLU; in assay [30] it was 3600 RLU; in assay [31], 5660 RLU. Moreover, the Trimeric HA Binding: RLU worked out at 27800 RLU in assay [32], 3290 RLU in assay [33] and 4300 RLU in assay [34].

B3: TCN-529 (5297_H01) (antibody, V domains shown)
VH: QITLRESGPTLVKPTQTLTLTCTFSGFSLSTNGVNVGWIRQPPGKALEWLALIYWDDDKRYSPSLKRRLTITKDTSKNQVVLTLTNMDPVDTATYYCAHRPDFYGDFEYWGPGTLVTVSS
VL: QSALTQPASVSGSPGQSITISCTGSSSDIGGYNYVSWYQQHPGKAPKLMIYDVNNRPSGVSNRFSGSKSGNTASLTISGLQTDDEADYYCGSYTGSPHYVFGTGTKVTVL
Regarding B3, the Trimeric HA Binding: RLU in assay [1] worked out at 435 RLU; in assay [2] it was 1160 RLU; in assay [4] it was 51600 RLU; in assay [5], 410 RLU; in [7], 533 RLU; in [29], 977 RLU. Besides, the Trimeric HA Binding: RLU in assay [9] was determined as 1560 RLU; in assay [10], 1310 RLU; in [11] it was 2820 RLU; in assay [12], 243 RLU; in assay [13], 25600 RLU; in assay [14], 681 RLU. Besides, the Trimeric HA Binding: RLU came to 737 RLU in [15]; 735 RLU in [18]; 45 RLU in assay [20]; 158 RLU in assay [23]; 2940 RLU in assay [24]; 33 RLU in assay [25]. Besides, the Trimeric HA Binding: RLU in [26] is 48 RLU; in [28], 45 RLU.

The record behind these values is patent publication US20150086555A1.
